Measured values published in the supplement of paper PMC5998384.

Assays:
HeLa Kyoto [1] = assay: solubility in G1/S (NP-40 vs SDS abundance) (log2 ratio); higher = more soluble; conditions: cell cycle stage: G1/S
HeLa Kyoto [2] = assay: melting temperature (median over replicates), in situ; higher = more thermally stable
HeLa Kyoto [3] = assay: solubility change mitosis vs G1/S (difference of NP-40 vs SDS log2 ratios) (log2 ratio difference); higher = more soluble in mitosis
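For melting temperature (median over replicates), in situ in this document: HeLa Kyoto cells synchronized by double thymidine or nocodazole block, proteins quantified by TMT10plex mass spectrometry, three independent biological replicates.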
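For solubility change mitosis vs G1/S (difference of NP-40 vs SDS log2 ratios) in this document: synchronized HeLa Kyoto cells (double thymidine block for G1/S, nocodazole release for mitosis), protein amounts in NP-40 versus SDS lysates quantified by mass spectrometry, three biological replicates.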
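For solubility in G1/S (NP-40 vs SDS abundance) in this document: HeLa Kyoto cells arrested at G1/S by double thymidine block, proteins quantified by TMT10plex mass spectrometry in mild NP-40 versus SDS extracts, three biological replicates.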

Sequence	solubility in G1/S (log2) (HeLa Kyoto [1])	melting temperature (HeLa Kyoto [2]; cell cycle stage: G1/S) [°C]	melting temperature (HeLa Kyoto [2]; cell cycle stage: mitosis) [°C]	solubility change mitosis (log2) (HeLa Kyoto [3])
MSSSSSSPRETYEEDREYESQAKRLKTEEGEIDYSAEEGENRREATPRGGGDGGGGGRSFSQPEAGGSHHKVSVSPVVHVRGLCESVVEADLVEALEKFGTICYVMMMPFKRQALVEFENIDSAKECVTFAADEPVYIAGQQAFFNYSTSKRITRPGNTDDPSGGNKVLLLSIQNPLYPITVDVLYTVCNPVGKVQRIVIFKRNGIQAMVEFESVLCAQKAKAALNGADIYAGCCTLKIEYARPTRLNVIRNDNDSWDYTKPYLGRRDRGKGRQRQAILGEHPSSFRHDGYGSHGPLLPLPSRYRMGSRDTPELVAYPLPQASSSYMHGGNPSGSVVMVSGLHQLKMNCSRVFNLFCLYGNIEKVKFMKTIPGTALVEMGDEYAVERAVTHLNNVKLFGKRLNVCVSKQHSVVPSQIFELEDGTSSYKDFAMSKNNRFTSAGQASKNIIQPPSCVLHYYNVPLCVTEETFTKLCNDHEVLTFIKYKVFDAKPSAKTLSGLLEWECKTDAVEALTALNHYQIRVPNGSNPYTLKLCFSTSSHL [HNRPLL]	-0.0931	47.6	49.7	-0.0114
MSVAGLKKQFHKATQKVSEKVGGAEGTKLDDDFKEMERKVDVTSRAVMEIMTKTIEYLQPNPASRAKLSMINTMSKIRGQEKGPGYPQAEALLAEAMLKFGRELGDDCNFGPALGEVGEAMRELSEVKDSLDIEVKQNFIDPLQNLHDKDLREIQHHLKKLEGRRLDFDYKKKRQGKIPDEELRQALEKFDESKEIAESSMFNLLEMDIEQVSQLSALVQAQLEYHKQAVQILQQVTVRLEERIRQASSQPRREYQPKPRMSLEFPTGDSTQPNGGLSHTGTPKPSGVQMDQPCCRALYDFEPENEGELGFKEGDIITLTNQIDENWYEGMLHGHSGFFPINYVEILVALPH [SH3GL2]	0.586	48.7	49.2	-0.159
MSVHYTLNLRVFWPLVTGLCTALVCLYHVLRGSGGARAEPADGVDGGFPLLKVAVLLLLSYVLLRCRHAVRQRFLPGSPRLEGHAAFSSRHFREPGLSILLESYYEHEVRLSPHVLGHSKAHVSRIVGELVRAGRARGSPGLIPGGALALAFRGDFIQVGSAYEQHKIRRPDSFDVLVPLRLPPLVALEPRSLGEEPALAPAFRGCFLCALKAPPSPSGASGGHWLRDCKPFADAFCVDVRGRRHLSATLVLRWFQSHLQRSLATVRYSLEGRCRVTLTPGGLEQPPTLHILPCRTDYGCCRLSMAVRLIPAVHLGDGVFLVAPPPPPLPSAPLLELPEGLRAEALWGVNTARQEQKLLSWLQERAAPGACYLKCLQLLKALRDLGARGLDSAAATQWGRILSSYVLKTVLLAVLLRKGAPGQGWDEEHLGRCLEELVQFLRDCLLRRHTLFHCVLGPGGAAAEVGPLPKALREAAPVDLLAAFDGHARELAAARLLSTWQRLPQLLRAYGGPRYLARCPPPRSQRTQGFLEGEP [ITPRIPL2]	-0.164	53.8	55.4	0.00884
MSVQSSSGSLEGPPSWSQLSTSPTPGSAAAARSLLNHTPPSGRPREGAMDELHSLDPRRQELLEARFTGVASGSTGSTGSCSVGAKASTNNESSNHSFGSLGSLSDKESETPEKKQSESSRGRKRKAENQNESSQGKSIGGRGHKISDYFEYQGGNGSSPVRGIPPAIRSPQNSHSHSTPSSSVRPNSPSPTALAFGDHPIVQPKQLSFKIIQTDLTMLKLAALESNKIQDLEKKEGRIDDLLRANCDLRRQIDEQQKLLEKYKERLNKCISMSKKLLIEKSTQEKLSSREKSMQDRLRLGHFTTVRHGASFTEQWTDGFAFQNLVKQQEWVNQQREDIERQRKLLAKRKPPTANNSQAPSTNSEPKQRKNKAVNGAENDPFVRPNLPQLLTLAEYHEQEEIFKLRLGHLKKEEAEIQAELERLERVRNLHIRELKRINNEDNSQFKDHPTLNERYLLLHLLGRGGFSEVYKAFDLYEQRYAAVKIHQLNKSWRDEKKENYHKHACREYRIHKELDHPRIVKLYDYFSLDTDTFCTVLEYCEGNDLDFYLKQHKLMSEKEARSIVMQIVNALRYLNEIKPPIIHYDLKPGNILLVDGTACGEIKITDFGLSKIMDDDSYGVDGMDLTSQGAGTYWYLPPECFVVGKEPPKISNKVDVWSVGVIFFQCLYGRKPFGHNQSQQDILQENTILKATEVQFPVKPVVSSEAKAFIRRCLAYRKEDRFDVHQLANDPYLLPHMRRSNSSGNLHMAGLTASPTPPSSSIITY [TLK1]	0.061	50.1	53.3	-0.0453
MTGKSVKDVDRYQAVLANLLLEEDNKFCADCQSKGPRWASWNIGVFICIRCAGIHRNLGVHISRVKSVNLDQWTQEQIQCMQEMGNGKANRLYEAYLPETFRRPQIDPAVEGFIRDKYEKKKYMDRSLDINAFRKEKDDKWKRGSEPVPEKKLEPVVFEKVKMPQKKEDPQLPRKSSPKSTAPVMDLLGLDAPVACSIANSKTSNTLEKDLDLLASVPSPSSSGSRKVVGSMPTAGSAGSVPENLNLFPEPGSKSEEIGKKQLSKDSILSLYGSQTPQMPTQAMFMAPAQMAYPTAYPSFPGVTPPNSIMGSMMPPPVGMVAQPGASGMVAPMAMPAGYMGGMQASMMGVPNGMMTTQQAGYMAGMAAMPQTVYGVQPAQQLQWNLTQMTQQMAGMNFYGANGMMNYGQSMSGGNGQAANQTLSPQMWK [SMAP2]	0.111	48.3	49.6	-0.0647
MTLIEGVGDEVTVLFSVLACLLVLALAWVSTHTAEGGDPLPQPSGTPTPSQPSAAMAATDSMRGEAPGAETPSLRHRGQAAQPEPSTGFTATPPAPDSPQEPLVLRLKFLNDSEQVARAWPHDTIGSLKRTQFPGREQQVRLIYQGQLLGDDTQTLGSLHLPPNCVLHCHVSTRVGPPNPPCPPGSEPGPSGLEIGSLLLPLLLLLLLLLWYCQIQYRPFFPLTATLGLAGFTLLLSLLAFAMYRP [TMUB1]	0.566	51.6	52.5	0.143
MTNEEPLPKKVRLSETDFKVMARDELILRWKQYEAYVQALEGKYTDLNSNDVTGLRESEEKLKQQQQESARRENILVMRLATKEQEMQECTTQIQYLKQVQQPSVAQLRSTMVDPAINLFFLKMKGELEQTKDKLEQAQNELSAWKFTPDSQTGKKLMAKCRMLIQENQELGRQLSQGRIAQLEAELALQKKYSEELKSSQDELNDFIIQLDEEVEGMQSTILVLQQQLKETRQQLAQYQQQQSQASAPSTSRTTASEPVEQSEATSKDCSRLTNGPSNGSSSRQRTSGSGFHREGNTTEDDFPSSPGNGNKSSNSSEERTGRGGSGYVNQLSAGYESVDSPTGSENSLTHQSNDTDSSHDPQEEKAVSGKGNRTVGSRHVQNGLDSSVNVQGSVL [WTAP]	-0.0275	48.9	50.3	0.772
MTRGNQRELARQKNMKKQSDSVKGKRRDDGLSAAARKQRDSEIMQQKQKKANEKKEEPK [SERF2]	0.752	57.5	–	0.151
MTSTGQDSTTTRQRRSRQNPQSPPQDSSVTSKRNIKKGAVPRSIPNLAEVKKKGKMKKLGQAMEEDLIVGLQGMDLNLEAEALAGTGLVLDEQLNEFHCLWDDSFPEGPERLHAIKEQLIQEGLLDRCVSFQARFAEKEELMLVHSLEYIDLMETTQYMNEGELRVLADTYDSVYLHPNSYSCACLASGSVLRLVDAVLGAEIRNGMAIIRPPGHHAQHSLMDGYCMFNHVAVAARYAQQKHRIRRVLIVDWDVHHGQGTQFTFDQDPSVLYFSIHRYEQGRFWPHLKASNWSTTGFGQGQGYTINVPWNQVGMRDADYIAAFLHVLLPVALEFQPQLVLVAAGFDALQGDPKGEMAATPAGFAQLTHLLMGLAGGKLILSLEGGYNLRALAEGVSASLHTLLGDPCPMLESPGAPCRSAQASVSCALEALEPFWEVLVRSTETVERDNMEEDNVEESEEEGPWEPPVLPILTWPVLQSRTGLVYDQNMMNHCNLWDSHHPEVPQRILRIMCRLEELGLAGRCLTLTPRPATEAELLTCHSAEYVGHLRATEKMKTRELHRESSNFDSIYICPSTFACAQLATGAACRLVEAVLSGEVLNGAAVVRPPGHHAEQDAACGFCFFNSVAVAARHAQTISGHALRILIVDWDVHHGNGTQHMFEDDPSVLYVSLHRYDHGTFFPMGDEGASSQIGRAAGTGFTVNVAWNGPRMGDADYLAAWHRLVLPIAYEFNPELVLVSAGFDAARGDPLGGCQVSPEGYAHLTHLLMGLASGRIILILEGGYNLTSISESMAACTRSLLGDPPPLLTLPRPPLSGALASITETIQVHRRYWRSLRVMKVEDREGPSSSKLVTKKAPQPAKPRLAERMTTREKKVLEAGMGKVTSASFGEESTPGQTNSETAVVALTQDQPSEAATGGATLAQTISEAAIGGAMLGQTTSEEAVGGATPDQTTSEETVGGAILDQTTSEDAVGGATLGQTTSEEAVGGATLAQTTSEAAMEGATLDQTTSEEAPGGTELIQTPLASSTDHQTPPTSPVQGTTPQISPSTLIGSLRTLELGSESQGASESQAPGEENLLGEAAGGQDMADSMLMQGSRGLTDQAIFYAVTPLPWCPHLVAVCPIPAAGLDVTQPCGDCGTIQENWVCLSCYQVYCGRYINGHMLQHHGNSGHPLVLSYIDLSAWCYYCQAYVHHQALLDVKNIAHQNKFGEDMPHPH [HDAC6]	-0.0107	50.5	52	-0.0591
MTTSSIRRQMKNIVNNYSEAEIKVREATSNDPWGPSSSLMTEIADLTYNVVAFSEIMSMVWKRLNDHGKNWRHVYKALTLLDYLIKTGSERVAQQCRENIFAIQTLKDFQYIDRDGKDQGINVREKSKQLVALLKDEERLKAERAQALKTKERMAQVATGMGSNQITFGRGSSQPNLSTSHSEQEYGKAGGSPASYHGSPEASLCPQHRTGAPLGQSEELQPLSQRHPFLPHLGLASRPNGDWSQPCLTCDRAARATSPRVSSELEQARPQTSGEEELQLQLALAMSREVAEQEERLRRGDDLRLQMALEESRRDTVKIPKKKEHGSLPQQTTLLDLMDALPSSGPAAQKAEPWGPSASTNQTNPWGGPAAPASTSDPWPSFGTKPAASIDPWGVPTGATVQSVPKNSDPWAASQQPASSAGKRASDAWGAVSTTKPVSVSGSFELFSNLNGTIKDDFSEFDNLRTSKKTAESVTSLPSQNNGTTSPDPFESQPLTVASSKPSSARKTPESFLGPNAALVNLDSLVTRPAPPAQSLNPFLAPGAPATSAPVNPFQVNQPQPLTLNQLRGSPVLGTSTSFGPGPGVESMAVASMTSAAPQPALGATGSSLTPLGPAMMNMVGSVGIPPSAAQATGTTNPFLL [EPN2]	0.656	54.9	54.6	-0.0178
MVAYWRQAGLSYIRYSQICAKAVRDALKTEFKANAEKTSGSNVKIVKVKKE [ATP5E]	-0.106	53.2	51.8	0.368
MVMYARKQQRLSDGCHDRRGDSQPYQALKYSSKSHPSSGDHRHEKMRDAGDPSPPNKMLRRSDSPENKYSDSTGHSKAKNVHTHRVRERDGGTSYSPQENSHNHSALHSSNSHSSNPSNNPSKTSDAPYDSADDWSEHISSSGKKYYYNCRTEVSQWEKPKEWLEREQRQKEANKMAVNSFPKDRDYRREVMQATATSGFASGMEDKHSSDASSLLPQNILSQTSRHNDRDYRLPRAETHSSSTPVQHPIKPVVHPTATPSTVPSSPFTLQSDHQPKKSFDANGASTLSKLPTPTSSVPAQKTERKESTSGDKPVSHSCTTPSTSSASGLNPTSAPPTSASAVPVSPVPQSPIPPLLQDPNLLRQLLPALQATLQLNNSNVDISKINEVLTAAVTQASLQSIIHKFLTAGPSAFNITSLISQAAQLSTQAQPSNQSPMSLTSDASSPRSYVSPRISTPQTNTVPIKPLISTPPVSSQPKVSTPVVKQGPVSQSATQQPVTADKQQGHEPVSPRSLQRSSSQRSPSPGPNHTSNSSNASNATVVPQNSSARSTCSLTPALAAHFSENLIKHVQGWPADHAEKQASRLREEAHNMGTIHMSEICTELKNLRSLVRVCEIQATLREQRILFLRQQIKELEKLKNQNSFMV [WAC]	0.525	46.5	49.9	0.139
MVNPGSSSQPPPVTAGSLSWKRCAGCGGKIADRFLLYAMDSYWHSRCLKCSCCQAQLGDIGTSCYTKSGMILCRNDYIRLFGNSGACSACGQSIPASELVMRAQGNVYHLKCFTCSTCRNRLVPGDRFHYINGSLFCEHDRPTALINGHLNSLQSNPLLPDQKVC [LMO4]	-0.938	52.8	–	-0.0181
